The source of these data is patent US20140099332A1 (IMMUNOGEN, published 2014).

Values joined by “and” are separate entries in the source; they are usually repeats but may differ in a detail not shown here. Equal values may be shown once. A value given as a limit tells only on which side of the number the result lay.

Experiment [1] deals with T1, human FolR1-Fc fusion protein (human; mouse, UniProt P15328 25-233).
T1 construct: The construct encodes the 233 amino acids from the N-terminal signal peptide to just upstream of the GPI linkage site; also called huFOLR1-Fc; human folate receptor 1 Fc fusion molecule; not shown: residues encoded by the Pst1 to BamHI oligonucleotide linker
The experiment in a line: sandwich ELISA: Mu FOLR1-13 coated on the plate, FOLR-Fc fusion titrated, detected with Hu Mov19 and polyclonal goat anti-human HRP.

The target in experiment [2] is T2, human folate receptor 1 (FOLR1) on cells (human, UniProt P15328 25-234).
T2 construct: also called FRA; huFolR1
The experiment in a line: laser scanning cytometry on cell lines, optimal dilution 1:200. As for the experimental part: (§1) Three cell lines with varying levels of FOLR1 expression were selected as representative of high expression (KB), low expression (OVCAR3), and no expression (A549). Unlabeled FR1-9 and FR1-13, as well as a commercial anti-FOLR1 antibody (“commercial FRA”), were titrated, and optimal titrations were determined for each of the antibodies using laser scanning cytometry (LSC) detection on the selected cell lines. […] Optimal dilutions were identified for each antibody as follows: 1:5 for commercial FRA, 1:100 for muFR1-9, and 1:200 for muFR1-13.

In the next experiment the target is T3, FOLR2 (UniProt P14207 17-230, limits assumed).
T3 construct: also called folate receptor 2
Nature of the experiment: ELISA on FOLR2-His antigen, antibody titrated ([Ab] (M)); positive control FR2 Ab reaches about 0.42 [left graph (FOLR2-His].

Experiment [3] concerns the target T2, human folate receptor 1 (FOLR1) on cells. The experiment in a line: indirect flow cytometry, T47D cells, Alexa-488 goat anti-mouse. As for the experimental part: (§2) To assure that materials were continuously performing as expected, all antibodies were screened for binding by both ELISA and flow cytometry methods known in the art. Flow cytometry was performed using FOLR1 expressing human T47D cells cultured using in-vitro cell culture techniques known in the art. The antibodies were bound to these cells and detected indirectly using a goat anti-murine Alexa-fluor 488 detection antibody on a FACScalibur machine (FIG. 6A-B).

Experiment [4] concerns the target T4, FOLR1 (antigen of the screening ELISAs, form not stated) (human, UniProt P15328 25-234).
T4 construct: It may be the FOLR1-Fc fusion; also called the same antigen; the target
The experiment in a line: competition ELISA: serial concentrations of competing murine clone against a constant concentration of (biotinylated) muFR1-13.

Another experiment concerns the target T5, FOLR3 (human, UniProt P41439 23-245, limits assumed).
T5 construct: also called folate receptor 3
The experiment in a line: ELISA with FOLR3-His antigen titrated ([Ag ug/ml]); positive control reaches about 2.6 after 3 min development [right graph (FOLR3-His].

Experiment [5] deals with T2, human folate receptor 1 (FOLR1) on cells. The experiment in a line: apparent binding affinity 'by both methods': flow cytometry on T47D cells and ELISA; lower end of the range given for FR1-13; flow cytometry on T47D cells and ELISA. The protocol:
as §2

Experiment [6] deals with T1, human FolR1-Fc fusion protein. Nature of the experiment: sandwich ELISA (Folate ELISA): 1 ug/ml FR1-64, 1 ug/ml FR1-13-Biotin, FOLR1-Fc titrated.
Experiment [7] deals with T2, human folate receptor 1 (FOLR1) on cells. The experiment in a line: apparent binding affinity 'by both methods': flow cytometry on T47D cells and ELISA; upper end of the range given for FR1-13; flow cytometry on T47D cells and ELISA. The protocol:
as §2

For experiment [8] the target is unchanged. The experiment in a line: apparent binding affinity 'by both methods': flow cytometry on T47D cells and ELISA; unit M taken from the preceding value; upper end of the range given for FR1-9; flow cytometry on T47D cells and ELISA. As for the experimental part: as §2
Experiment [9] deals with T1, human FolR1-Fc fusion protein. Nature of the experiment: sandwich ELISA (FOLR1 ELISA): clone coated on the plate as capture antibody, FOLR-Fc fusion titrated, format as in FIG. 1. As for the experimental part:
The 40 clones were alternatively coated onto the assay plate in place of muFR1-9 in the diagram, and the resulting binding curves were analyzed shown in FIG. 5. Antibodies that contained the lowest half-maximal response (EC50) were considered to have the highest binding specificity to FOLR1, and thus were chosen as the top candidates for the assay.

For experiment [10], the target named is T2, human folate receptor 1 (FOLR1) on cells. The experiment in a line: laser scanning cytometry on cell lines, optimal dilution 1:100. As for the experimental part:
as §1

The target is the same in experiment [11]. The experiment in a line: apparent binding affinity 'by both methods': flow cytometry on T47D cells and ELISA; unit M taken from the preceding value; lower end of the range given for FR1-9; flow cytometry on T47D cells and ELISA. The protocol:
as §2

T2 sequence (P15328 25-234): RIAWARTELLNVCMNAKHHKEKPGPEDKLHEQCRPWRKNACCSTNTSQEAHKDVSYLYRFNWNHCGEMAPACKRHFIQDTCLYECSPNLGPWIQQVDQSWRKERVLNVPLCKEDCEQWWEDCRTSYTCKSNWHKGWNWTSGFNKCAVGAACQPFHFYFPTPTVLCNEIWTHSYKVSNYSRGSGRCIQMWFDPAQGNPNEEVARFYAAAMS
T1 sequence (P15328 25-233): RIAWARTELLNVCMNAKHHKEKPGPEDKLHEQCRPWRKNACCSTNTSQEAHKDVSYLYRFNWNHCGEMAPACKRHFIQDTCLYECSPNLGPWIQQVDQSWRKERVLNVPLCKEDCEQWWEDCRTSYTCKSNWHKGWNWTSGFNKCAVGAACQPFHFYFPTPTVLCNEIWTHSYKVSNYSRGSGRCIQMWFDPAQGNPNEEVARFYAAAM
T3 sequence (P14207 17-230 limits assumed): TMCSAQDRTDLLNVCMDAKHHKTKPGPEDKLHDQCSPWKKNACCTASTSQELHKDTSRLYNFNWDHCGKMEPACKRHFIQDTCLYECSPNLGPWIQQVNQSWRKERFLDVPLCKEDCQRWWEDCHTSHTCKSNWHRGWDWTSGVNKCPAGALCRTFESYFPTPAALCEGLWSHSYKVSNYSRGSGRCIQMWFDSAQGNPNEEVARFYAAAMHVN
T5 sequence (P41439 23-245 limits assumed): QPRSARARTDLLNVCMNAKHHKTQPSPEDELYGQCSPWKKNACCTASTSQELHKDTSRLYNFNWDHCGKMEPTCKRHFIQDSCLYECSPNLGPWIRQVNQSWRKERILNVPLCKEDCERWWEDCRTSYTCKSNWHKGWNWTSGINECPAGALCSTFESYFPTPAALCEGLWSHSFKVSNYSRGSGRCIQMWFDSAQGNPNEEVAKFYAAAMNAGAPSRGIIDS
T4 sequence (P15328 25-234 limits assumed): as the sequence (P15328 25-234) above

B1: muFR1-13 (antibody, mouse IgG2b, kappa, V domains shown)
VH: QVQLKESGPDLVAPSQSLSITCTVSGFSLSRYSVHWIRQPPGKGLEWLGMIWSGGNTDYNSVFKSRLNITKDNSKSQVFLKMNSLQTDDTAIYYCATFDGKVSWFAYWGQGTLVTVSA
VL: SIVMTQTPKFLLVSTGDRFTITCKASQSVSNDVLWYQQKPGQSPKLLIYYAYNRYSGVPDRFTGSGYGTDFTFTITTVQSEDLAVYFCQQDHSSPFTFGSGTKLEIKR
notes: Murine monoclonal purified from hybridoma supernatant; also called muFR1-13b (biotinylated); Biotinylated FR1-13
Take B1: the “EC50 (read off the curve)” value in experiment [1] was roughly 0.005 nM; in [3], ~1 nM and ~2 nM; in [6], ~2 nM and ~3 nM. The “signal to background ration” value in experiment [2] came out at 4.19. Further, the binding result with FOLR2 is “no binding (tested: about 10^-8 M antibody)”; in the experiment with FOLR3, “no binding (tested: about 2.5 ug/ml antigen)”. Also, the “IC50 (read off the curve)” value in [4] was roughly 0.07 µg/mL. In addition, the Kd was no less than 1 nM in [5] and no more than 3 nM in experiment [7].

B2: muFR1-9 (antibody, mouse IgG1, kappa, V domains shown)
VH: QVQLVESGGGLVQPGGSRKLSCAASGFTFSSFGMHWVRQAPEKGLEWVAYISSGSSTFYYADTVKGRFTISRDNPKNTLFLQMTSLRSEDTAMYYCAKELTGTFAYWGQGTLVTVSA
VL: DIVLTQSPATLSVTPGDSVSLSCRASQSINNNLHWYQQKSHESPRLLIKYASQSISGIPSRFSGSGSGTDFTLSINSVETEDFGMYFCQQSNSWPQVTFGAGTKLELKR
notes: Murine monoclonal purified from hybridoma supernatant; Capture antibody of the sandwich ELISA; also called murine FR1-9
For the molecule B2, the binding result is “no binding (tested: about 10^-8 M antibody)” in the experiment with FOLR2 and “no binding (tested: about 2.5 ug/ml antigen)” with FOLR3. Besides, the Kd in [8] was no more than 4 nM; in experiment [11], no less than 2 nM. Further, the “EC50 (read off the curve)” value in experiment [9] was roughly 0.004 nM. Moreover, the “signal to background ration” value in experiment [10] is 4.07.

B3: muFR1-53 (antibody, mouse IgG1, kappa, V domains shown)
VH: QVQLQQSGPELVRPGASVKMSCKASGYKFTDYDISWVLQRTGQGLEWIGEIYPGSGRTYYNERFKGKATLTADKSSNTVYMQLSSLTSEDSAVYFCASSYYYGTNSPFAYWGQGTTLTVSS
VL: DIQMTQTTSSLSASLGDRVTISCRASQDISNYLHWYQRKPDGTVKLLVYYTSRLQSGVPSRFSGSGSGTDYSLTISNLEQEDIATYFCQQGNSLPPTFGSGTKLEIKR
notes: The full-length chains differ from the variable domains by shifted residues
In the case of B3, the figures for the binding result with FOLR2 and in the experiment with FOLR3 were “no binding (tested: about 10^-8 M antibody)” and “no binding (tested: about 2.5 ug/ml antigen)”, respectively. Also, in experiment [9], the “EC50 (read off the curve)” value is roughly 0.01 nM.

B4: muFR1-62 (antibody, mouse IgG1, kappa, V domains shown)
VH: QVQLQQSGAELARPGASVKMSCKASGYTFTTYTMHWVKQRPGQGLEWIAYINPTSGYNNYNQKFKEKATLTADKSSSTAYMQLTSLTSEDSAVYYCASGGAYGRRPVDYWGQGTSVTVSS
VL: DIVMTQSQKFMSISVGDRVSVTCKASQNVGTNVAWYQQKPGQSPKTLIYSASSRYSGVPDRFTGSGSGTDFTLTISNVQSEDLADYFCHQYNSYPYTFGGGTKLEIKR
notes: Murine monoclonal; The full-length light chain differs from the VL by shifted residues
On to B4, for which the figures for the binding result with FOLR2 and with FOLR3 were “no binding (tested: about 10^-8 M antibody)” and “no binding (tested: about 2.5 ug/ml antigen)”, respectively. Besides, the “EC50 (read off the curve)” value in experiment [9] is roughly 0.01 nM.
